These results are taken from patent US20160046711A1 (Novartis, published 2016).

Usually EC50 stands for the concentration giving half of the maximal effect. Read a high EC50 as a need for much substance.

Experiment [1] has as its target T1, mouse CDH6 expressed on CHO cells (mouse, UniProt P97326 54-790).
T1 sequence (looked up): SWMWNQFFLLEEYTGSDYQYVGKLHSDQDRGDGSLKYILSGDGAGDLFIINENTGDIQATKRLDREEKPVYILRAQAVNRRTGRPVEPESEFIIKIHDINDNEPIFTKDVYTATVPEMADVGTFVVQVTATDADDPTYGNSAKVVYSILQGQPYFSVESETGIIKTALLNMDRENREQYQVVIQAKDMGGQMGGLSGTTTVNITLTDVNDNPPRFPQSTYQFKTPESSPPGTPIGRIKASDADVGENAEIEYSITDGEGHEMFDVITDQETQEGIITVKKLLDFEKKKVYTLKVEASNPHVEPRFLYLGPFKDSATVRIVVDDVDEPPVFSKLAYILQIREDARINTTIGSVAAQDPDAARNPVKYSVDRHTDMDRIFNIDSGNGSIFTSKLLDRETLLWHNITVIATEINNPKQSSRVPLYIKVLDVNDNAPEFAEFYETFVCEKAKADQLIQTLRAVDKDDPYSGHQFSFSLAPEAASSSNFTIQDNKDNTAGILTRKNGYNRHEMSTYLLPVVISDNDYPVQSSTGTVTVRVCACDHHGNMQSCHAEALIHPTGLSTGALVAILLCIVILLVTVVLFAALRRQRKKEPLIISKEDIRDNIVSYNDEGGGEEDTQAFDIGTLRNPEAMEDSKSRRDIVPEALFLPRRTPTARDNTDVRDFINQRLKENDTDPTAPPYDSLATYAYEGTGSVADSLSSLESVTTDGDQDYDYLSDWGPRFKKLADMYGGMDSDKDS
As to the kind of experiment: FACS titration.

In experiment [2] the target is T2, rat CDH6 expressed on CHO cells (rat, UniProt P55280 54-789).
T2 sequence (looked up): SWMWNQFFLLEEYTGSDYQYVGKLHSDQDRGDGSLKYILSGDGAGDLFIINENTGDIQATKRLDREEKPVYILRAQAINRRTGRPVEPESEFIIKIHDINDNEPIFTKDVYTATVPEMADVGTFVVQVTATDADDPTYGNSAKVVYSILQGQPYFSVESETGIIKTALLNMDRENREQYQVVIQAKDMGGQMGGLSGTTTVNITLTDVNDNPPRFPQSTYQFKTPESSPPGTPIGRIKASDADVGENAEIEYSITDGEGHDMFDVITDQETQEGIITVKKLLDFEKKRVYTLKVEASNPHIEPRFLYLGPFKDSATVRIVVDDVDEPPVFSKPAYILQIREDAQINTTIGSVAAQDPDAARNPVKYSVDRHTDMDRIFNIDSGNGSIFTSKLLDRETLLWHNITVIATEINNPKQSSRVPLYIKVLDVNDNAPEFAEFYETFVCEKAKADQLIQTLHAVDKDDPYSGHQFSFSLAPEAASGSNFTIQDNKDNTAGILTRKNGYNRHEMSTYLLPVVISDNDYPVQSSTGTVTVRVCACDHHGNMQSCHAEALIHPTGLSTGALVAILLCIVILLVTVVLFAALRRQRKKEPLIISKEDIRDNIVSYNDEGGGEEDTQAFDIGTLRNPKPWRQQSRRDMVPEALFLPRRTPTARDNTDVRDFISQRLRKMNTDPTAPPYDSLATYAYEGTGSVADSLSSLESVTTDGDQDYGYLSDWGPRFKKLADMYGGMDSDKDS
As to the kind of experiment: FACS titration.

The target in experiment [3] is T3, cynomolgus CDH6 expressed on CHO cells (cynomolgus, UniProt A0A2K5TW62 54-790).
T3 sequence: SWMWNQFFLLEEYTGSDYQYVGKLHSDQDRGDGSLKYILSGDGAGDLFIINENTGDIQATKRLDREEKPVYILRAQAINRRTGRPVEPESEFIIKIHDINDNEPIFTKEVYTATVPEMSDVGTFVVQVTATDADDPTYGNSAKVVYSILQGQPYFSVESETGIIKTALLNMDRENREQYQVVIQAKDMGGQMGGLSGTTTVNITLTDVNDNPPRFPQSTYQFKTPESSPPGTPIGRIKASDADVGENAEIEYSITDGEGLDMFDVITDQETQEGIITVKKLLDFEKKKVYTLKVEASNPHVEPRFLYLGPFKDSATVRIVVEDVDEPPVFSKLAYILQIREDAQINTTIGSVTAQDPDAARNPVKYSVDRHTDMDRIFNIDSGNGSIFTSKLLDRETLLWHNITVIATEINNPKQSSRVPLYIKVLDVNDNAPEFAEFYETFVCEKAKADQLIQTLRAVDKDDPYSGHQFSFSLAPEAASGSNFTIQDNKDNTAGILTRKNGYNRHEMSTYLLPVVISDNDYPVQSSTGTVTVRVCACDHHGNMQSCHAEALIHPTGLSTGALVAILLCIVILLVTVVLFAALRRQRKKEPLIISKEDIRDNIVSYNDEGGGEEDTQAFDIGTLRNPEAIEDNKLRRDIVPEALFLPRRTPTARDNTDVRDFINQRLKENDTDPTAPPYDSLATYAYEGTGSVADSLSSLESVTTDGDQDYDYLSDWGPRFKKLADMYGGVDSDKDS
Nature of the experiment: FACS titration.

In experiment [4] the target is T4, human CDH6 expressed on cells (human, UniProt P55285 54-790).
T4 sequence: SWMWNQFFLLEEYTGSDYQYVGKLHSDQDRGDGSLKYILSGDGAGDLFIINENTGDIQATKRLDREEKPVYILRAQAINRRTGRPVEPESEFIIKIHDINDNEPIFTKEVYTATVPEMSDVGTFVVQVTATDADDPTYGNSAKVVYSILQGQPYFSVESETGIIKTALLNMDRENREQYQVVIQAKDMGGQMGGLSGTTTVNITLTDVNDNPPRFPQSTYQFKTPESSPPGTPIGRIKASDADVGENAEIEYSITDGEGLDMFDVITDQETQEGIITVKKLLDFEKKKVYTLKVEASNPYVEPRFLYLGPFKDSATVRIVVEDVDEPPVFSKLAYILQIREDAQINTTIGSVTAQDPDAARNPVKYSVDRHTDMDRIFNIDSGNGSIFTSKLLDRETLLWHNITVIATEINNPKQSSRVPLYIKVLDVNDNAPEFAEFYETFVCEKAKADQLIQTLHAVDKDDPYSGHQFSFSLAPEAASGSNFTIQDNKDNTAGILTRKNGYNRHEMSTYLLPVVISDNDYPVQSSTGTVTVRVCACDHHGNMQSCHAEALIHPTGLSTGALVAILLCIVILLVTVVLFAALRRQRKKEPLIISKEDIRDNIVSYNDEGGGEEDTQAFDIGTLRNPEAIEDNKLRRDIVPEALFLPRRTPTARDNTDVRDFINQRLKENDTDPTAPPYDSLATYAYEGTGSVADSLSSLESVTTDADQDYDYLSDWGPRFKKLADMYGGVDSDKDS
As to the kind of experiment: FACS titration.

For experiment [5], the target named is T4, human CDH6 expressed on cells. Nature of the experiment: FACS titration. The source holds these as a separate data set.
Experiment [6] deals with T1, mouse CDH6 expressed on CHO cells. As to the kind of experiment: FACS titration on CHO-moCDH6.
For experiment [7], the target named is T3, cynomolgus CDH6 expressed on CHO cells. As to the kind of experiment: FACS titration on CHO-cyCDH6.
Experiment [8] addresses T2, rat CDH6 expressed on CHO cells. Nature of the experiment: FACS titration on CHO-ratCDH6.
Experiment [9] has as its target T4, human CDH6 expressed on cells. As to the kind of experiment: FACS titration on CHO-TO-huCDH6.

B1: NOV0712 (antibody, human IgG1, kappa, V domains shown)
VH: QVQLLESGGGLVQPGGSLRLSCAASGFTFSSHGMHWVRQAPGKGLEWVSVISGSGSNTGYADSVKGRFTISRDNSKNTLYLQMNSLRAEDTAVYYCARQWGSYAFDSWGQGTLVTVSS
VL: DIQMTQSPSSLSASVGDRVTITCRASQSISSYLNWYQQKPGKAPKLLIYAVSTLQSGVPSRFSGSGSGTDFTLTISSLQPEDFATYYCQQSGTFPPTTFGQGTKVEIKR
In the case of B1, the EC50 in [1] is 1.26 nM; in [2], 0.814 nM; in [3], 1.07 nM; in experiment [4], 0.946 nM; in [5] it was 0.386 nM.

B2: NOV0712-sulfo-SPDB-DM4 (antibody, human IgG1, kappa, V domains shown)
VH: QVQLLESGGGLVQPGGSLRLSCAASGFTFSSHGMHWVRQAPGKGLEWVSVISGSGSNTGYADSVKGRFTISRDNSKNTLYLQMNSLRAEDTAVYYCARQWGSYAFDSWGQGTLVTVSS
VL: DIQMTQSPSSLSASVGDRVTITCRASQSISSYLNWYQQKPGKAPKLLIYAVSTLQSGVPSRFSGSGSGTDFTLTISSLQPEDFATYYCQQSGTFPPTTFGQGTKVEIKR
modifications: sulfo-SPDB-DM4 linker/payload on antibody amines, positions not given
For the molecule B2, the half-maximal effective concentration (EC50) stood at 0.94 nM in experiment [6]; 0.606 nM in experiment [7]; 0.637 nM in [8]; 0.651 nM in experiment [9]; 0.364 nM in experiment [5].
